US9333240B2, “Compounds for improving nutritional status, cognition and survival” (YISSUM RESEARCH DEVELOPMENT COMPANY OF THE HEBREW …, priority 2005, dated 2016)
Entries after “also recorded” stand apart in the source; their conditions may differ.

Assays:
mice [1] = test: Eight-arm maze, mice ad libitum or diet restricted; assay type: in vivo; conditions: 1 mg/kg leptin daily for 5 days
Protocol: Control mice received food ad-libitum. Diet-restricted mice received a diet of 57 kCal/week/mouse (2.16 g/day/mouse) as 60% of the requirement, or 38 kCal/week/mouse (1.44 g/day/mouse) for 40%/DR. DR was carried out for 10 days. Behavioral test was performed using the eight-arm spatial maze during the second week of experiment. […] Mice were sacrificed by decapitation after the behavioral tests and the hippocampi were frozen at −70° C. The animals were placed in an eight-arm maze, which is a scaled-down version of that developed for rats (Randt et al, (1971) Science 172, 489-499; Ziv et al (1994) Neuroscience Lett, 170, 136-140). […] The mice were tested until they made entries into all eight arms or until they completed 24 entries, whichever came first. […] Maze performance was calculated each day for five consecutive days. Results were presented as area under the curve (AUC) utilizing the formula: (day 2+day 3+day 4+day 5)−4*(day 1).

mice [2] = test: Eight-arm maze in LPS administered mice; assay type: in vivo; conditions: 1 mg/kg leptin daily
Protocol: (§1) The animals were placed in an eight-arm maze, which is a scaled-down version of that developed for rats (Randt et al, (1971) Science 172, 489-499; Ziv et al (1994) Neuroscience Lett, 170, 136-140). We used water deprivation achieved by limiting water consumption overnight and a reward of 50 μl of water presented at the end of each arm. The mice were tested until they made entries into all eight arms or until they completed 24 entries, whichever came first. […] Maze performance was calculated each day for five consecutive days. Results were presented as area under the curve (AUC) utilizing the formula: (day 2+day 3+day 4+day 5)−4*(day 1).
LPS administered mice were daily treated with 1 mg/kg leptin and then subjected to the eight arm maze.

Cultured cardiomyocytes [3] = test: Apoptosis of glucose-deprived cardiomyocytes by FACS; assay type: cell-based; conditions: glucose deprived condition for 1, 2, 6 h, 1 ug/ml Leptin
Protocol: In another experiment cultured cardiomyocytes exposed to glucose deprived condition for 1, 2, 6 h were treated with 1 ug/ml Leptin. Apoptotic cell death was detected by FACS analysis.

[4] = test system: norepinephrine and dopamine in the hippocampus; test: Hippocampal catecholamine measurements (HPLC-ECD); assay type: in vivo, mice; conditions: 1 mg/kg leptin daily
Protocol: Control mice received food ad-libitum. Diet-restricted mice received a diet of 57 kCal/week/mouse (2.16 g/day/mouse) as 60% of the requirement, or 38 kCal/week/mouse (1.44 g/day/mouse) for 40%/DR. DR was carried out for 10 days. Behavioral test was performed using the eight-arm spatial maze during the second week of experiment. During the behavioral tests, half of the animals in each group were injected intraperitoneally (i.p) with AICAR (1-2 mM equal to 258-516 mg/kg) or leptin (1 mg/kg) and the other half with saline. Mice were sacrificed by decapitation after the behavioral tests and the hippocampi were frozen at -70° C. Catecholamines were measured as described previously ([…] et al (1996), Brain Res. 732, 133-144. The assays for dopamine and NE were performed by HPLC separation and detection using HPLC-ECD. Values are presented as a concentration (ng/mg tissue).

Cultured cardiomyocytes [5] = test: Cardiomyocyte viability after glucose deprivation (WST); assay type: cell-based; conditions: glucose deprivation for 1, 3, 6 h
Protocol: Cultured cardiomyocytes were exposed to glucose deprivation for 1, 3, 6 h and were treated with Leptin as described above. Cell viability was analyzed by WST.

mice [6] = test: Eight-arm maze in TAA model of hepatic encephalopathy; assay type: in vivo; conditions: TAA treated mice, 1 mg/kg Leptin daily for 5 days
Protocol: FIG. 11. […] Mice were treated with TAA, then 1 mg/kg Leptin was administered daily for 5 days. Cognitive function was evaluated in the eight arm maze.
as §1

Bcl-2, Bax, PARP = test: Hippocampal apoptosis proteins by RT-PCR and immunoblotting; assay type: in vivo, mice; conditions: leptin 1 mg/kg, DR to 40%, immunoblotting
Protocol: Total hippocampal RNA was extracted using […] reagent according to the manufacturer's instructions and reverse transcribed. Primers specific for OBRlong were […] NO: 1) and […] NO: 6), for […] NO: 2), and […] NO: 7), for BAX […] NO: 3) and […] NO: 8) for Bcl-2 […] NO: 4) and […] NO: 9) and for actin […] NO: 5) and […] NO: 10). […] Total hippocampal Protein was extracted using […] reagent. Aliquots of the clarified lysates containing […] were denatured in Laemmli sample buffer (6% SDS 30%, glycerol, 0.02% bromophenol blue, 200 mM Tris-HCl (pH 6.8), and 250 mM-mercaptoethanol, at 95° C. for 5 min. The samples were resolved by SDS-PAGE (10% acrylamide), and blotted onto nitrocellulose membrane. Non-specific binding in a Western blot analysis was prevented by immersing the membranes in blocking buffer (5% nonfat dry milk in Tris-buffer saline-Tween 20 (TBS-T)), for 2 h at room temperature. The membranes were then exposed to the indicated antibodies diluted 1:1000 for 1 h at room temperature. AMPK, phospho-AMPK and PARP were obtained from Cell Signaling. Bax, bcl-2 and actin were from Santa Cruz Biotechnology Inc. (Santa Cruz, Calif.). The blots were rinsed in TBS-T and then incubated with horseradish peroxidase-conjugated goat anti-mouse antibodies 1:10,000 for 1 h at room temperature. Antibody-antigen complexes were visualized by detecting enhanced chemiluminescence with X-ray film.

mice [7] = test: Survival of mice under severe energy restriction (40% DR); assay type: in vivo; conditions: for survival time: Kaplan Meir log rank p<0.05
Protocol: Severe energy restriction leads to deterioration of neural function and eventually death. Since leptin can improve cognitive function following DR to 40% and prevents neural apoptosis, it was investigated whether it may also promote mice survival under these same severe conditions. In the first experiment, mice were fed ad libitum or DR to 40% for 12 days and injected daily with 1 mg/kg leptin or saline during the second week (5 days). 95% of the mice survived with leptin treatment compared to 65% in the control group (p<0.05). In a second experiment, mini-osmotic pumps delivering 0.05 mg/kg/h leptin or saline continuously for 16 days were implanted in mice under 40% DR (12 animals in each group). […] The 50% survival in the treated group increased from 9 to 14 days. (FIG. 5).

mice [8] = test: Activity index in TAA model of hepatic encephalopathy; assay type: in vivo; conditions: TAA treated mice, 1 mg/kg Leptin daily for 5 days
Protocol: FIG. 10. […] Mice were treated with TAA, then 1 mg/kg Leptin was administrated daily for 5 days and activity index was evaluated.
Mice were treated with TAA to cause an experimental hepatic encephalopathy-brain damaged caused by liver dysfunction and common in people whose liver function deteriorates. The activity index of the animals was assessed. […] FIG. 11.

B1: leptin: Murine leptin provided by A. Gertler; adipokine hormone, full leptin is a 146 amino acid sequence (protein, UniProt P41160 22-167, looked up)
Leptin: VPIQKVQDDTKTLIKTIVTRINDISHTQSVSAKQRVTGLDFIPGLHPILSLSKMDQTLAVYQQVLTSLPSQNVLQIANDLENLRDLLHLLAFSKSCSLPQTSGLQKPESLDGVLEASLYSTEVVALSRLQGSLQDILQQLDVSPEC
Q: What does the source list for B1?
A: eight-arm maze performance (mice [1]; DR to 40%): reversed the impaired eight-arm maze performance; eight-arm maze performance (mice [1]; ad libitum control group): not affected; cognitive function in the eight arm maze (mice [2]): reverse cognitive function in diseased animals to the level of health controls; also recorded: improved impaired cognitive function; apoptotic cell death (FACS) (Cultured cardiomyocytes [3]): reduced apoptotic death; apoptotic cell death (FACS) (Cultured cardiomyocytes [3]; listed as Leptin): decreased apoptosis; dopamine concentrations in the hippocampus ([4]; AL group): down-regulated; dopamine concentrations in the hippocampus ([4]; DR group (40%)): did not induce any significant reduction; NE concentration in the hippocampus ([4]; DR to 40%): reversed the reduction of NE; cell viability (WST) (Cultured cardiomyocytes [5]): increased significantly the viability; also recorded: induces survival; cognitive function in the eight arm maze (mice [6]): reversed impaired cognitive function; Bax levels (Bcl-2, Bax, PARP): reducing; PARP cleavage (Bcl-2, Bax, PARP): reduction in the cleaved subunit; bcl-2 level (Bcl-2, Bax, PARP): up-regulation; 50% survival (mice [7]; 40% DR, mini-osmotic pump 0.05 mg/kg/h leptin for 16 days, 9 days with saline): 14 days; survival time (mice [7]; 40% DR, mini-osmotic pump 0.05 mg/kg/h leptin for 16 days): survived significantly longer; survival time (mice [7]; 40% DR, mini-osmotic pump 0.05 mg/kg/h leptin for 16 days, listed as Leptin): increases survival; mice survived (mice [7]; DR to 40% for 12 days, 1 mg/kg leptin daily during second week (5 days), 65% in control group, p<0.05): 95%; activity index (mice [8]): reverse activity in diseased animals to the level of health controls; also recorded: reversed activity to control level
